Reference: patent US20250195685A1 (CAPSTAN THERAPEUTICS, published 2025)

How the values were obtained:
[1] = target: T1, human CD8 on cells (CD8-overexpressing HEK293T cells, SupT1, HPB-ALL, human T cells, transfected HEK293 of … (human, UniProt P01732 22-235)); assay: flow cytometry on SupT1 cells; SupT1 cells
T1 construct: whole, on cells; also called cell surface CD8
Procedure: (§1) To obtain the results shown in FIG. 6, SupT1 (ATCC #CRL-1942) and HPB-ALL (DSMZ; ACC-483) were cultured in RPMI medium supplemented with 10% Fetal Bovine Serum (#97068-085; Avantor). To determine EC₅₀ values of cell binding from the anti-CD8α antibody, 2×10⁵ total cells were transferred to a V bottom 96-well culture plate (Corning). Cells were washed twice with Cell Staining buffer (#420201, Biolegend). The anti-CD8α antibody was diluted in four-fold antibody titration series from 60 μg/mL to […] into Cell Staining buffer. Cells were stained with each diluted antibody solution for 30 minutes on ice. Cells were then washed three times with Cell Staining buffer and primary antibody binding was detected by staining with anti-human Fc BV421 conjugate antibody (#410704, Biolegend) at 1:200 dilution for 30 minutes on ice. eFluor 780 Fixable Viability dye (eBioscience) at a 1:4000 dilution were also included in the detection antibody solutions. […] Flow cytometry data was analyzed by Flowjo 10 (Becton, Dickinson & Company) to measure the geometric median fluorescence intensity (gMFI) of the on-cell binding from each antibody. The gMFI values were normalized with the gMFI measured in the sample stained with only the secondary detection antibody and plotted against the concentration of the added antibodies. […]

[2] = target: T2, human CD8αα homodimer, recombinant protein (Acro Biosystems) (human, UniProt P01732 22-182); assay: BLI binding kinetic analysis, whole antibody, sample stressed at pH 8.5, 40 °C, 3 days
T2 construct: also called CD8αα antigen; biotinylated CD8α recombinant protein (CDA-H82E3)

[3] = target: T3, insulin (Sigma); assay: polyreactive ELISA, insulin coated, 100 nM antibody
T3 construct: Antigen of the polyreactivity ELISA
Procedure: Insulin ([…]; Sigma) and dsDNA ([…]; Sigma) were coated onto 96-well high-binding ELISA microplates (Corning) at 50 μL per well overnight at 4° C. Plates were blocked with PBS with 0.5% BSA (blocking buffer) at room temperature (RT) for 1 h, followed by three washes with PBST (PBS with 0.1% Tween-20). 50 μL of 100 nM antibody in blocking buffer was added to each well and incubated at RT for 1 h, followed by six washes with 100 μL of PBS. 50 μL of diluted anti-human IgG-horseradish peroxidase (HRP) conjugate (Jackson ImmunoResearch) was added to the wells and incubated for 1 h followed by another six washes. Finally, 50 μL of 3, 3′, 5, 5′-Tetramethylbenzidine (TMB) substrate (Fisher Scientific) was added to each well to develop the detection signal. The reactions were stopped by adding 50 μL of 2 M sulfuric acid to each well. The absorbance was measured at 450 nm using a multimode microplate reader. Ustekinumab as the control antibody with low polyreactivity and bococizumab as a highly polyreactive antibody control were also included in the polyreactive ELISA assessment.
The first assessment tested for low non-specific binding to dsDNA and insulin by ELISA. […] Thus, by this standard, none of the tested antibodies were polyreactive.

[4] = target: T2, human CD8αα homodimer, recombinant …; assay: BLI, whole antibody
[5] = target: T1, human CD8 on cells (CD8-overexpressing …); assay: flow cytometry on HPB-ALL cells; HPB-ALL cells
Procedure: as §1

[6] = target: T2, human CD8αα homodimer, recombinant …; assay: BLI steady state analysis, whole antibody, sample stressed at pH 8.5, 40 °C, 3 days
Procedure: To assess affinity of whole antibodies, steady state analysis was used as the bivalent nature of both whole antibody and CD8α complicates kinetic analysis. 50 nM CD8α-His (that is, CD8α with a C-terminal oligohistidine tag; Acro) was immobilized on Ni-NTA sensor probes. Binding was analyzed with a three-fold antibody dilutions series: 60 nM, 20 nM, 6.67 nM, 2.22 nM, 0.74 nM, and 0.25 nM. The antigen-loaded sensors were incubated in the diluted solutions to capture the whole IgG antibody for 300 s to record the association phase. Sensors were incubated in the kinetic buffer for 900 s to record the dissociation phase. The spin speed was 1000 rpm for all steps except the antigen loading step which was 400 rpm to control density of the antigen. The temperature of the performed assays was at 30° C. during the association and dissociation phases. The sensor data were baseline subtracted and further analyzed in GatorOne software (version 2.10) to determine the equilibrium dissociation constants (KD) of the antibodies by fitting the signals of the steady states to the 1:1 binding model.

[7] = target: T2, human CD8αα homodimer, recombinant …; assay: BLI steady state, whole hIgG1-LALAPA antibody on CD8α-His (Ni-NTA sensor), 30 °C

T2 sequence (P01732 22-182 limits assumed): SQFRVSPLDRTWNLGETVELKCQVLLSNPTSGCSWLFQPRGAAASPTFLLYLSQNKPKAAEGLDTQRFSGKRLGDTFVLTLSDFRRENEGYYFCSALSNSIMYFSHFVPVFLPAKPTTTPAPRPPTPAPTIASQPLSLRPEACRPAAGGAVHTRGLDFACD
T1 sequence (P01732 22-235): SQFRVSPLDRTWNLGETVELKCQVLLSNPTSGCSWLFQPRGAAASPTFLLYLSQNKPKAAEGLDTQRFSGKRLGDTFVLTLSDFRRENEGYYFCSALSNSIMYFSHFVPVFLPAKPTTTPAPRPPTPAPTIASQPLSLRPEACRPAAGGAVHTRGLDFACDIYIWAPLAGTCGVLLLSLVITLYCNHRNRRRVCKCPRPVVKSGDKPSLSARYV
T3 sequence (P01308 25-54, chain 1 of 2): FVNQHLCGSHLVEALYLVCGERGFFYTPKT
T3 sequence (P01308 90-110, chain 2 of 2): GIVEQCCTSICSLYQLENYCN

| Binder | EC50 [1] [µg/mL] | Kd [2] [nM] | koff [2] [s⁻¹] | kon [2] [M⁻¹ s⁻¹] | polyreactivity ELISA score [3] | koff [4] [s⁻¹] | kon [4] [M⁻¹ s⁻¹] | EC50 [5] [µg/mL] | Kd [6] [nM] | Kd [7] [nM] |
| --- | --- | --- | --- | --- | --- | --- | --- | --- | --- | --- |
| CBD1033 whole antibody, human IgG1 with Fc-silencing mutations L234A, L235A and P329A (CBD1033-hIgG1-LALAPA) (antibody, V domains shown, On tLNPs the antibody was SATA-modified or AJICAP-thiolated (CBD1033.29) and conjugated to the LNP; also called CBD1033.3; CBD1033 IgG1) VH: QVQLVQSGAEVKKPGASVKVSCKASRYTFTDYNLHWVRQAPGQGLEWMGFIYPYNGGTGYAQKFQGRVTMTVDTSTSTAYMELSSLRSEDTAVYYCARDHRYNEGVSFDYWGQGTTVTVSS VL: DIQLTQSPSSLSASVGDRATITCRASESVDGFGNSFMNWYQQKPGKAPKLLIYLASNLESGVPSRFSGSGSGTDFTLTISSVQPEDFATYYCQQNNEDPYTFGQGTKLEIKR | 0.312 | 2 | 0.00314 | 1.57e+06 | 1 | 0.00307 | 1.85e+06 | 0.274 | 1.71 | – |
| CBD1017ch whole antibody (chimeric CT8 antibody) (antibody, V domains shown, Chimeric antibody comprising the variable regions of the donor antibody CT8; detected with anti-human Fc) VH: EVQLQQSGPELVKPGASVKISCKASRYTFTDYNLHWVKLSHEKSLEWIGFIYPYNGGTGYNQKFKNKAKLTVDYSSSTAYMELRSLTSVDAAVYYCARDHRYNEGVSFDYWGQGTTLTVSS VL: NIVLTQSPASLAVSLGQRATISCRASESVDGFGNSFMNWYQQKPGQSPKLLIYLASNLESGVPARFSGSGSRTDFTLTIDPVEADDAATYYCQQNNEDPYTFGGGTKLEIK | – | – | – | – | – | – | – | – | – | 0.58 |
